Measured values published in US20230220080A1.

Biological target: B lymphoma cell lines Raji or Daudi (CD20 and CD22)
Assay: FACS on Raji cells, Alexa Fluor 488 anti-human IgG1, MFI; binder is a 1:1 mixture

EC50: 3.25 nM
Substance: Epratuzumab/ Ofatumumab (1:1)
